Measurements published in publication PMC12499500.

Molecular target: drosophila GABAB2 subunit, EM construct (residues 24–790) (Drosophila melanogaster) (UniProt Q9BML6)
Sequence (Q9BML6 entry or part of it): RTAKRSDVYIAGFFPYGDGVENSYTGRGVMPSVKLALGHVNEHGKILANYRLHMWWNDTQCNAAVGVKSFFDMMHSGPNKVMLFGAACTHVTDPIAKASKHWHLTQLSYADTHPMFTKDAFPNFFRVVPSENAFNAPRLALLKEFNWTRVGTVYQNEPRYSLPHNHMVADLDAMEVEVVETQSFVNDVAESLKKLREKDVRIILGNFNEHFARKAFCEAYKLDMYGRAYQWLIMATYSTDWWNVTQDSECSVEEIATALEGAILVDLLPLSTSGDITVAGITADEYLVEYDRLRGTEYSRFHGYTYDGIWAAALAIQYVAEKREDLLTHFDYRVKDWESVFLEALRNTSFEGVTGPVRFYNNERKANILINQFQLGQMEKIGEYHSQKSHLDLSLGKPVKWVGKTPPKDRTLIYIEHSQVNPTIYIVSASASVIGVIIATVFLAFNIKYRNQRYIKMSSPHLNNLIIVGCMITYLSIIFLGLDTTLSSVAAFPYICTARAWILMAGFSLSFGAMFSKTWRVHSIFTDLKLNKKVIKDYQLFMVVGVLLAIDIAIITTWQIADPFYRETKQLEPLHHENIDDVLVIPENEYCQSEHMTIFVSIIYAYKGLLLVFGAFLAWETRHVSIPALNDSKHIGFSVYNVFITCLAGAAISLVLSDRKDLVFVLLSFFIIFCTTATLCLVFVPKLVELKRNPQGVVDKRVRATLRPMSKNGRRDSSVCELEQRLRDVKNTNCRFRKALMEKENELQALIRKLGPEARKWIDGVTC

Substance | basal IP1 accumulation (constitutive activity), HEK293 cells co-transfected with the dGB1 mutant and wild-type dGB2, against the wild-type receptor (% increase in IP1 accumulation) | basal IP1 accumulation (constitutive activity), HEK293 cells co-transfected with the dGB1 mutant and wild-type dGB2, against dGB1^III (% increase in IP1 accumulation)
dGB1^I (V658L) (from UniProt Q9BML7 1-840) (receptor) | 50 | 
dGB1^I-II (V658L, F659L) (from UniProt Q9BML7 1-840) (receptor) |  | 17
dGB1^I-II-III (V658L, F659L, E666A, H566A) (from UniProt Q9BML7 1-840) (receptor) |  | 22
dGB1^II (F659L) (from UniProt Q9BML7 1-840) (receptor) | 66 | 
dGB1^III (E666A and H566A) (from UniProt Q9BML7 1-840) (receptor) | 59 | 
